This passage reports average interaction time results from paper PMC7614532 (Cell, 2023).

The test deals with N-terminally SNAP-tagged human β2AR (SNAP-β2AR) (human, UniProt P07550 1-413). Description: single-molecule co-localisation.

B1: bovine βArr2 tagged C-terminally with Halo (βArr2-Halo) (natural protein)
chain: MGEKPGTRVFKKSSPNCKLTVYLGKRDFVDHLDKVDPVDGVVLVDPDYLKDRKVFVTLTCAFRYGREDLDVLGLSFRKDLFIANYQAFPPTPNPPRPPTRLQERLLRKLGQHAHPFFFTIPQNLPCSVTLQPGPEDTGKACGVDFEIRAFCAKSLEEKSHKRNSVRLVIRKVQFAPEKPGPQPSAETTRHFLMSDRSLHLEASLDKELYYHGEPLNVNVHVTNNSTKTVKKIKVSVRQYADICLFSTAQYKCPVAQVEQDDQVSPSSTFCKVYTITPLLSNNREKRGLALDGKLKHEDTNLASSTIVKEGANKEVLGILVSYRVKVKLVVSRGGDVSVELPFVLMHPKPHDHIALPRPQSAAPETDAPVDTNLIEFETNYATDDDIVFEDFARLRLKGLKDEDYDDQFC
Turning to B1, the average interaction time is ~1 s.
